Experimental data reported in patent US20210253725A1 (BIONTECH, published 2021).
Numbering of substitutions follows the chain as printed. In names and notes the source's numbering stands.

Tests used:
[1] = molecular target: T1, CD27 protein (His-tagged, Sino Biological Inc. 10039-H08B1) (human, UniProt P26842 20-192); experiment: ELISA on coated His-tagged CD27
T1 construct: bought; coated onto ELISA plates; also called human CD27; recombinant protein; not shown: His tag
T1 sequence (looked up): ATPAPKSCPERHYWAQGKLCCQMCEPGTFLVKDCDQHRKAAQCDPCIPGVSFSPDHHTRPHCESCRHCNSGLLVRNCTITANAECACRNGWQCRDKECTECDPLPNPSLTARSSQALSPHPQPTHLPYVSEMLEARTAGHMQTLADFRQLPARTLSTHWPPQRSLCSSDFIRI

[2] = molecular target: T2, CD27 expressed on the cell surface (HT1080_CD27 cells) (human, UniProt P26842 20-260); experiment: cellular binding assay, HT1080_CD27 cells
T2 construct: whole, on cells; also called K562_CD27
T2 sequence (looked up): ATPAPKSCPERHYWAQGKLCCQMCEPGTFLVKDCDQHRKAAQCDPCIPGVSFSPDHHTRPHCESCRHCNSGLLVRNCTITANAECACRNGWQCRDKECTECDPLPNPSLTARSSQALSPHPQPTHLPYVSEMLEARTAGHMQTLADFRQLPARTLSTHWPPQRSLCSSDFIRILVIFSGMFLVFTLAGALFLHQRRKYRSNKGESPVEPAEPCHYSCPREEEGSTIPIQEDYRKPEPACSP

[3] = molecular target: T2, CD27 expressed on the cell surface …; experiment: cell-based or functional assay
Also: test concentration or dose not given here.

B1: P018.S.01.A.C06 (antibody, V domains shown)
VH: QSVEESGGRLVTPGTPLTLTCTVSGIDLNNYVMGWVRQAPGKGLEWIGIINTAGSTYYANWAKGRFTISKTSTTVDLKITSPTTEDTATYFCARDSSYYIGYYFNLWGPGTLVTVSS
VL: QIVMTQTPASVEVAVGGTVTIKCQASQSIGSNLAWYQQKPGQPPKLLIYDASDLESGVPSRFKGSGSGAQFTLTISDLESADAATYYCQQGYSATTNVDNAFGGGTEVVVK
notes: V regions on human Ig constant parts; also called AB27_10
ELISA [abs. corr.] [1]: 3.3 abs. corr.
Cellular binding assay [RFU] [2]: 369 RFU
IL-8, cross-linked by F(ab')2 fragment [abs. corr.] [3]: 1.79 abs. corr.
IL-8 [abs. corr.] [3]: 0.325 abs. corr.

B2: P018.S.01.A.H02 (antibody, V domains shown)
VH: QSVEESGGRLVTPGTPLTLTCTASGFSLSSYHMQWVRQAPGKGLEWIGIIYAGSGNTWYASWAKGRFTISKTSTTVDLKITSPTTEDTAAYFCARQPGGDASDTQLDLWGQGTLVTVSS
VL: AAVLTQTASPVSAAVGGTVTINCQSSQSVFDHNQLSWFQHKPGQSPKLLIYRASTLASGVPSRFKGSGSGTQFTLTISDVQSDDAATYYCLGGYSSSSDTVFGGGTEVVVK
notes: V regions on human Ig constant parts; also called AB27_25
ELISA [abs. corr.] [1]: 3.3 abs. corr.
Cellular binding assay [RFU] [2]: 317 RFU
IL-8, cross-linked by F(ab')2 fragment [abs. corr.] [3]: 2.54 abs. corr.
IL-8 [abs. corr.] [3]: 0.3 abs. corr.

B3: P018.S.07.A.C02 (antibody, V domains shown)
VH: B2 VH with Q34C, A90T, D100G
VL: B2 VL with A8P, H32N, V80L, Q81E, K111E
notes: V regions on human Ig constant parts; also called AB27_119
ELISA [abs. corr.] [1]: 3.13 abs. corr.
Cellular binding assay [RFU] [2]: 380 RFU
IL-8, cross-linked by F(ab')2 fragment [abs. corr.] [3]: 2.02 abs. corr.
IL-8 [abs. corr.] [3]: 0.735 abs. corr.

B4: P018.S.05.A.F02 (antibody, V domains shown)
VH: QSVEESGGRLVTPGTPLTLTCTVSGFSLNNYGITWVRQAPGKGLEYIGYINYGGIAYYASWVNGRFTISKTSTTVDLKMTSLTAADTATYFCARGYGYYSAGNLWGQGTLVTVSS
VL: AQVLTQTPSPVSAAVGGTVTINCQASQSVYDNNYLSWYQQKPGQPPKRLIYDASSLASGVPSRFSGSGSGTQFTLTISGVQSDDAATYYCAGEYSCLSDDCIAFGGGTEVVVK
notes: V regions on human Ig constant parts; also called AB27_91
ELISA [abs. corr.] [1]: 3.29 abs. corr.
Cellular binding assay [RFU] [2]: 472 RFU
IL-8, cross-linked by F(ab')2 fragment [abs. corr.] [3]: 1.91 abs. corr.
IL-8 [abs. corr.] [3]: 0.526 abs. corr.

B5: P018.S.03.A.E04 (antibody, V domains shown)
VH: QEQLKESGGGLVTPGGTLTLTCTVSGIDLSSYAISWVRQAPGKGLEWIGYIYVGSTTTWYASWVKGRSTISKTSSTTVDLKMTSLTTEDTATYFCARAYDSGYIGNSFYIFHPWGPGTLVTVSS
VL: DIVMTQTPASVSATVGGTVTIKCQASQTISSRLAWYQQKPGQPPKLLIYSASTLASGVSSRFKGSGSGTEFTLTISDLESADGATYYCAGYGGLGITAFGGGTEVVVK
notes: V regions on human Ig constant parts; also called AB27_52
ELISA [abs. corr.] [1]: 3.29 abs. corr.
Cellular binding assay [RFU] [2]: 356 RFU
IL-8, cross-linked by F(ab')2 fragment [abs. corr.] [3]: 1.19 abs. corr.
IL-8 [abs. corr.] [3]: 0.2 abs. corr.

B6: P018.S.10.A.C06 (antibody, V domains shown)
VH: QSLEESGGRLVTPGTPLTLTCTVSGIDLNNNAMTWVRQAPGEGLEWIGIISTADTTTYASWTKGRFTISKTSTTVDLKITSPTTEDTATYFCARAAYFSYGYFNLWGQGTLVTVSS
VL: DIVMTQTPASVEAAVGGTVTIKCQASQNIGNALAWYQQKPGQPPKLLIYGASTLASGVPSRFKGSGSGTEFTLTISDLESADATTYFCQSYVYSDGNVFGGGTEVVVK
notes: V regions on human Ig constant parts; also called AB27_174
ELISA [abs. corr.] [1]: 3.39 abs. corr.
Cellular binding assay [RFU] [2]: 395 RFU
IL-8, cross-linked by F(ab')2 fragment [abs. corr.] [3]: 1.18 abs. corr.
IL-8 [abs. corr.] [3]: 0.28 abs. corr.

B7: P018.S.06.A.E02 (antibody, V domains shown)
VH: B6 VH with T57S
VL: B6 VL with P40S
notes: V regions on human Ig constant parts; also called AB27_105
ELISA [abs. corr.] [1]: 3.3 abs. corr.
Cellular binding assay [RFU] [2]: 357 RFU
IL-8, cross-linked by F(ab')2 fragment [abs. corr.] [3]: 1.22 abs. corr.
IL-8 [abs. corr.] [3]: 0.582 abs. corr.

B8: P018.S.10.A.E01 (antibody, V domains shown)
VH: QEQLVESGGGLVQPEGSLTLTCTATGIDFSTNYRSCWVRQAPGKGLEWIACIDTDDSDSTYYASWAKGRFTISKTSSTTVTLQMTSLTAADTATYFCTRAYTTSDYAWSFYLWGPGTLVTVSS
VL: DLVMTQTPASVEAAVGGTVTIKCQTSQSISKFLNWYQQTPGQPPKLLIYRASTLESGVPSRFEGSGSGTEFTLTISDLESADAATYYCQCTYGGTSGSVWAFGGGTEVVVK
notes: V regions on human Ig constant parts; also called AB27_175
ELISA [abs. corr.] [1]: 3.3 abs. corr.
Cellular binding assay [RFU] [2]: 227 RFU
IL-8, cross-linked by F(ab')2 fragment [abs. corr.] [3]: 2.54 abs. corr.
IL-8 [abs. corr.] [3]: 0.257 abs. corr.

B9: P018.S.07.A.C06 (antibody, V domains shown)
VH: QSVEESGGRLVTPGTPLTLTCTVSGFSLNHYHMCWVRQAPGKGLEYIGRIDNSGYIVYASWAKGRFTISKTSTTVDLKITSPTTADTATYFCGKYYSGGSYDLWGQGTLVTVSS
VL: AQVLTQTASSVSAAVGGTVTISCQSSQSVWNNNWLAWYQQKPGQPPKLLIYETSKLASGVPSRFKGSGSGTQFTLTISGVQSDDAATYYCQGEFSCSSDDCNAFGGGTEVVVK
notes: V regions on human Ig constant parts; also called AB27_121
ELISA [abs. corr.] [1]: 3.29 abs. corr.
Cellular binding assay [RFU] [2]: 336 RFU
IL-8, cross-linked by F(ab')2 fragment [abs. corr.] [3]: 1.04 abs. corr.
IL-8 [abs. corr.] [3]: 0.408 abs. corr.

B10: P018.S.10.A.E06 (antibody, V domains shown)
VH: QSLEESGGRLVTPGTPLTLTCTVSGIDLSDYAMAWVRQAPGKGLEYIGFINIGGISSVANWAIGRFTISKSSTTVDLKITSPTTEDTATYFCAREGYTTGGGGPYYGMDLWGPGTLVTVSS
VL: DIVMTQTPASVSEPMGGTVTIKCQASQSIHSWLSWYQQKPGQPPKRLIYTASTLASGVPSRFKGSGSGTEYTLTISDLESADAATYYCQRNSYSDFNNYVFGGGTEVVVK
notes: V regions on human Ig constant parts; also called AB27_178
ELISA [abs. corr.] [1]: 3.28 abs. corr.
Cellular binding assay [RFU] [2]: 215 RFU
IL-8, cross-linked by F(ab')2 fragment [abs. corr.] [3]: 2.06 abs. corr.
IL-8 [abs. corr.] [3]: 0.262 abs. corr.

B11: P018.S.09.A.C03 (antibody, V domains shown)
VH: QSVEESGGRLVTPGTPLTLTCTVSGFSLSSYGMIWVRQAPGKGLEWIGWISSNDNKYYARWAKGRFTISKTSTTVDLKMTSLTTEDTATYFCVRNGVYNTGNYFDLWGQGTLVTVSS
VL: AQVLTQTPSSVSAAVGGTVTINCQASQSLYNNKNLAWYQQKPGQPPKFLIYTASSLASGVSSRFKGSGSGTQFTLTISDVQSDDAATYYCQGEFDCDSDDCFAFGGGTEVVVK
notes: V regions on human Ig constant parts; also called AB27_148
ELISA [abs. corr.] [1]: 3.53 abs. corr.
Cellular binding assay [RFU] [2]: 319 RFU
IL-8, cross-linked by F(ab')2 fragment [abs. corr.] [3]: 2.25 abs. corr.
IL-8 [abs. corr.] [3]: 0.464 abs. corr.

B12: P018.S.04.A.A05 (antibody, V domains shown)
VH: QSLEESGGRLVTPGTPLTLTCTASGFTISSYEMGWVRQAPGEGLEYIGWIASGGSTFYASWAKGRFTISRTSTTVDLTITDLRPSDTGTYFCARGYVEFKLWGPGTLVTVSS
VL: DIVMTQTPASVSESVGGTVTIKCQASQSIGSYLSWYQQKPGQPPKVLIYRASTLESGVPSRFEGSGSGTQFTLTISDLESADAATYYCQGYHSTSGYVAFGGGTELVVK
notes: V regions on human Ig constant parts; also called AB27_65
ELISA [abs. corr.] [1]: 3.29 abs. corr.
Cellular binding assay [RFU] [2]: 206 RFU
IL-8, cross-linked by F(ab')2 fragment [abs. corr.] [3]: 2.24 abs. corr.
IL-8 [abs. corr.] [3]: 1.67 abs. corr.

B13: P018.S.05.A.A04 (antibody, V domains shown)
VH: QEQLVESGGDLVKPGASLTLTCTASGIDFSSSYYMSWVRQAPGKGLEWIACIDTVDDYTYYASWAKGRFTISKTSSTTVSLQMTSLTAADTATYFCARERIDNNTDCFDLWGPGTLVTISS
VL: AQVLTQTPSPVSAAVGGTVTISCQSSQSVVSKNRLAWYQQKPGQPPKLLIWLASKLASGVPSRFRGSGSGTQFTLTISGVQSDDAATYYCQGYYSGAIYAFGGGTDVVVK
notes: V regions on human Ig constant parts; also called AB27_81
ELISA [abs. corr.] [1]: 3.3 abs. corr.
Cellular binding assay [RFU] [2]: 369 RFU
IL-8, cross-linked by F(ab')2 fragment [abs. corr.] [3]: 1.37 abs. corr.
IL-8 [abs. corr.] [3]: 0.226 abs. corr.

B14: P018.S.05.A.A02 (antibody, V domains shown)
VH: QSLEESGGRLVTPGTPLTLICTASGIDLSSYGMTWVRQAPGKGLEWIGIISTIGDTYYASWVKGRFTISKTSTTVDLKITSPTTEDTATYFCARYTNSGYAMMYYFNLWGQGTLVTVSS
VL: DIVMTQTPASVEAAVGGTVTIKCQASQNIVNALAWYQQKLGQPPKLLIYVASYLASGVPSRFKGSGSGTEFTLTISDLESVDAATYYCQSYYYSSGTSYGQNAFGGGTEVVVK
notes: V regions on human Ig constant parts; also called AB27_80
ELISA [abs. corr.] [1]: 3.3 abs. corr.
Cellular binding assay [RFU] [2]: 334 RFU
IL-8, cross-linked by F(ab')2 fragment [abs. corr.] [3]: 1.53 abs. corr.
IL-8 [abs. corr.] [3]: 0.212 abs. corr.

B15: P018.S.09.A.D05 (antibody, V domains shown)
VH: QSLEESGGRLVTPGGSLTLTCTVSGIDLSSYAMDWVRQAPGKGLEWIGVIGAGGSTYYASWANGRFTISKTSTTVDLKISSPTTEDTATYFCARDIGGDYSSRYYFSLWGPGTLVTVSS
VL: DIVMTQTPASVEAAVGGTVTIKCQASQSTSTALAWYQQKPGQRPKLLIYDSSKLASGVPSRFSGSGSGTEFTLTISGVQSDDAASYYCQQGYNINNVAFGGGTEVVVK
notes: V regions on human Ig constant parts; also called AB27_152
ELISA [abs. corr.] [1]: 3.28 abs. corr.
Cellular binding assay [RFU] [2]: 400 RFU
IL-8, cross-linked by F(ab')2 fragment [abs. corr.] [3]: 2.11 abs. corr.
IL-8 [abs. corr.] [3]: 0.187 abs. corr.
